Test results taken from patent US8252303B2, “Injectable depot compositions and uses thereof” (Durect Corporation, priority 2002, dated 2012).

Test: Preliminary stability of PDGF preformulations in the gel vehicle (SEC and rpHPLC)
Assay type: physicochemical
Details: 5° C. for 1 day, Bulk PDGF as reference
Experimental: All lyophilized protein formulations as listed in Tables 8 and 9, were mixed into a gel vehicle with the composition of PLGA RG502/Benzyl Benzoate (BB)/benzyl alcohol (BA) of 40/45/15 with the loading of the protein formulation about 10 wt %. After being stored at 5° C. for 1 day, the mixtures were extracted with an organic solvent mixture of methylene chloride and acetone (ratio of 50/50) as described in the example 15 above. The purity of the PDGF-BB was analyzed by both reverse phase HPLC (rpHPLC) and size exclusion chromatography (SEC). In general, no distinguishable degradation of the PDGF-BB was found in the PDGF-BB formulation incorporated with the excipients as described in the Example 18 and mixed with the gel vehicle of the present invention.

## Bulk PDGF: PDGF-BB bulk solution, i.e., aqueous solution of PDGF in acetate buffer
Table 8 (succinate)
  % PDGF dimmer by SEC: 0.73%
  % other peaks by rp-HPLC: 0.0%
  % peak at RRT = 1.10 by rp-HPLC: 1.2%
Table 9 (histidine)
  % PDGF dimer by SEC: 0.73%
  % other peaks by rp-HPLC: 0.0%
  % peak at RRT = 1.10 by rp-HPLC: 1.2%
